Source: patent publication US6300084A, “Anti-mitotic agent screening process” (The Regents of the University of California, priority 1999, dated 2001)

Legend:
[1] = system: microtubules of wild-type strain DDY898; experiment: Microtubule depolymerization by benomyl in yeast cells, immunofluorescence; format: cell-based; conditions: 20 μg/ml benomyl, two hours at 25° C.
Description: Yeast cells were grown to early log phase in minimal or rich medium. For galactose induction, cells were grown to log phase in medium containing either raffinose or glucose. Cells grown on glucose were washed twice with water and then diluted into medium containing galactose/raffinose. Galactose was added directly to medium containing raffinose. Fixation and immunofluorescence procedures were carried out as described by Drubin et al. (1988). The YOL134 anti-tubulin antibody was used at 1:200 and the anti-Duo1p antibody (preparation described below) at 1:2000. Fluorescein-conjugated anti-heavy chain secondary antisera were obtained from Cappel/Organon Teknika (Malvern, Pa.). To determine whether the localization of Duo1p was dependent on microtubules in vivo, microtubules of wild-type strain DDY898 were depolymerized by the addition of 20 μg/ml benomyl. […] With the elimination of microtubules, Duo1p staining also vanished.

[2] = molecular target: yeast microtubules (yeast); experiment: co-sedimentation with microtubules; no increase with more microtubules
[3] = molecular target: bovine microtubules (assembled from bovine tubulin, stabilised with taxol) (bovine); experiment: as above
[4] = molecular target: bovine microtubules (assembled from bovine tubulin, stabilised with taxol) (bovine); experiment: co-sedimentation of in vitro translated Dam1p with taxol-stabilised bovine microtubules; half of Dam1p in the pellet at 5 µM microtubules

For `CCCCNC(=O)n1c(NC(=O)OC)nc2ccccc21` [benomyl], the “depolymerization of microtubules (immunofluorescence)” value [1] was “essentially all of the microtubules were depolymerized”.
With “GST-Duo1p fusion protein purified from yeast (pDD475)” the percent of the protein bound to microtubules [2] was 9% and the percent of the protein bound to microtubules [3] was 9%.
Compound in vitro translated Dam1p has a Kd [4] of 5 µM.
